# Laboratory results published in the Human Domainome abundance scans (Beltran et al. 2025).
# ± gives the uncertainty stated by the source.
# B1: TOX high mobility group box family member 3, residues 256 to 323; numbered along this chain, O15405 (parent)
# chain: QKPVSAYALFFRDTQAAIKGQNPNATFGEVSKIVASMWDSLGEEQKQVYKRKTEAAKKEYLKALAAYR
# Variants of: B1
# Experiment: abundance fitness (aPCA) (normalised: wild type 0, dead -1); higher = more abundant; growth selection in yeast, the domain comes from the species named
# Conditions: Homo sapiens
row,Variant,abundance fitness
1,QKPVSAYALFFRDTQAAIKGQNPNADFGEVSKIVASMWDSLGEEQKQVYKRKTEAAKKEYLKALAAYR,0.043 ± 0.085
2,QKPVSAQALFFRDTQAAIKGQNPNATFGEVSKIVASMWDSLGEEQKQVYKRKTEAAKKEYLKALAAYR,-0.212 ± 0.12
3,QKPVSAYALFFRDTQAAIKGQNPNATFGEVSKIVASMWDSLGEIQKQVYKRKTEAAKKEYLKALAAYR,-0.613 ± 0.19
4,QKPVSAYALFFRDTQAAIKGQNPNATFGEVSKIVASMWDSLGEGQKQVYKRKTEAAKKEYLKALAAYR,-0.17 ± 0.06
5,QKPVSAYALFFRDTQAAIKGQNPNATFGEVSKIVASMWDSLGEWQKQVYKRKTEAAKKEYLKALAAYR,-0.515 ± 0.073
6,QKPVSAYALFFRDTQAAIKGQNPNATFGEVSKIVASMWDSLGEEQKQVYKRKTEAAKKEYLKALFAYR,-0.111 ± 0.11
7,QKPVSAYALFFRDTQAAIKGQNPNATFGTVSKIVASMWDSLGEEQKQVYKRKTEAAKKEYLKALAAYR,-0.495 ± 0.077
8,QKPVSAYALFFRDTQAAIKGQNPNATFGWVSKIVASMWDSLGEEQKQVYKRKTEAAKKEYLKALAAYR,-0.158 ± 0.17
9,QKPVSAYALFFRDTQAAIKGQNPNATFGEVSKIVASMWDSLGEEQKQVYKRKTEAAKKEYLKKLAAYR,0.173 ± 0.062
10,QKPVSAYALFFRDTQAAIKGQNPNATFGEVSKIVASMWDSLGEEQKQVYKRKTEAAKKEYLKGLAAYR,0.201 ± 0.044
11,QKPVSAYALFFRDTQAAIKGQNPNATFGEVSKIVASMWDSLGEEQKQVYKRKTEAAKKEYLKLLAAYR,-0.395 ± 0.047
12,QKPVSAYALFCRDTQAAIKGQNPNATFGEVSKIVASMWDSLGEEQKQVYKRKTEAAKKEYLKALAAYR,-0.302 ± 0.13
13,QKPVSAYALFPRDTQAAIKGQNPNATFGEVSKIVASMWDSLGEEQKQVYKRKTEAAKKEYLKALAAYR,-1.17 ± 0.24
14,QKPVSAYALFFRDTQADIKGQNPNATFGEVSKIVASMWDSLGEEQKQVYKRKTEAAKKEYLKALAAYR,-0.133 ± 0.12
15,QKPVSAYALFFRDTQAQIKGQNPNATFGEVSKIVASMWDSLGEEQKQVYKRKTEAAKKEYLKALAAYR,-0.004 ± 0.072
16,QKPVSAYALFFRDTQANIKGQNPNATFGEVSKIVASMWDSLGEEQKQVYKRKTEAAKKEYLKALAAYR,-0.185 ± 0.16
17,QKPVSAYALFFRDTQAAIKGQNPNATFGEVSKIVASMWDSLGEEQKQVYKRKTEAAKKEQLKALAAYR,0.128 ± 0.069
18,QKPVSAYALFFRDTQAAIKGQNPNATFGEVSKIVASMWDSLGEEQKQVYKRNTEAAKKEYLKALAAYR,-0.133 ± 0.067
19,QKPVSAYALFFRDTQAAIKGQNPNATFGEVSKIVASMWDSLGEEQKQVYKRDTEAAKKEYLKALAAYR,-0.404 ± 0.078
20,QKPVSAYALFFRDTQAAIKGQNPNATFGEVSKIVASMWDSLGEEQKQVYKRFTEAAKKEYLKALAAYR,-0.93 ± 0.17

row,Variant,abundance fitness
1,QKPVSAYALFFRDTQAAIDGQNPNATFGEVSKIVASMWDSLGEEQKQVYKRKTEAAKKEYLKALAAYR,-1.13 ± 0.33
2,QKPVSAYALFFRDTQAAIKGQNPNATFGEVSKGVASMWDSLGEEQKQVYKRKTEAAKKEYLKALAAYR,-0.402 ± 0.067
3,QKPVSAYALFFRDTQAAIKGQNPNATFGEVSKIVASMWDSLGEEQKQVYKRKTEAAKKRYLKALAAYR,-0.162 ± 0.053
4,QKPVSAYALFFRDTQAAIKGQNPNATFGEVSKIVASMWDSLGEEQKQVYKRKTEAAKKYYLKALAAYR,-0.577 ± 0.19
5,QKPVSAYALFFRDTQAAIKGQNPNATFGEVSKIVASMWDSLGEEQKQVYKRKTEAAKKKYLKALAAYR,0.024 ± 0.084
6,QKPVSAYALFFRDTQAAIKGQNPNATFGEVSKIVASMWDSLGEEQKQVYKRKTEAAKKSYLKALAAYR,-0.166 ± 0.068
7,QKPVSAYALFFRDTQAAIKGQNPNATFGEVSKIVASMWDSLGEEQKQVYKRKTEAAKKTYLKALAAYR,-0.083 ± 0.1
8,QKPVSAYALFFRDTQAAIKGQNPNATFGEVSKIVQSMWDSLGEEQKQVYKRKTEAAKKEYLKALAAYR,-0.01 ± 0.071
9,QKPVSAYALFFRDTQAAIKGQNPNATFGEVSKIVASMWDSLGEEQKQVYKRKTEAAKKEYLKAFAAYR,-0.273 ± 0.095
10,QKPVSAYALFFRDTQAAIKGQNPNATFGEVSKIVASMWDSLGEEQKQVYKRKTEAAKKEYLKANAAYR,0.173 ± 0.1
11,QKPVSAYALFFRDTQAAIKGQNPNATFGEVSKIVASMWDSLGEEQKQVYKRKTEAAKKEYLKARAAYR,0.088 ± 0.054
12,QKPVSAYALFFRDTQAAIKGQNPNATFGEVSKIVASMWPSLGEEQKQVYKRKTEAAKKEYLKALAAYR,-0.829 ± 0.11
13,QKPVSAYALFFRDTQAAIKGQNPNATFGEVSKIVASMWLSLGEEQKQVYKRKTEAAKKEYLKALAAYR,-0.224 ± 0.042
14,QKPVSAYALFFRDTQAAIKGQNPNATFGEVSKIVASMWWSLGEEQKQVYKRKTEAAKKEYLKALAAYR,-0.211 ± 0.074
15,QKPVSAYALFFRDTQAAIKGQNPNATFGEVSCIVASMWDSLGEEQKQVYKRKTEAAKKEYLKALAAYR,-0.289 ± 0.072
16,QKPVSAYALFFRDTQAAIKGQNPNATFGEVSLIVASMWDSLGEEQKQVYKRKTEAAKKEYLKALAAYR,-0.376 ± 0.054
17,QKPYSAYALFFRDTQAAIKGQNPNATFGEVSKIVASMWDSLGEEQKQVYKRKTEAAKKEYLKALAAYR,-0.24 ± 0.097
18,QKPVSAYALFFRDTQAAIKGQNPTATFGEVSKIVASMWDSLGEEQKQVYKRKTEAAKKEYLKALAAYR,0.026 ± 0.078
19,QKPVSAYALFFRDTQAAIKGQNPNATFGEVSKIVASMWDSLGYEQKQVYKRKTEAAKKEYLKALAAYR,0.076 ± 0.11
20,QKPVSAYALFFRDTQAAIKGQNPNATFGEVSKIVASMWDSLGEEQKQVYSRKTEAAKKEYLKALAAYR,-0.181 ± 0.36
